Source: publication PMC7162537

Target: BRCA1 (UniProt P38398)
Test: anti-GFP co-IP from nuclear extract, blot
Conditions: reference: wild type GFP-CtIP; sites S327

Substance: CtIP (from UniProt Q99708) S327A
- binding against the reference: lost
